Legend:
[1] = target: OR1, RASSL derived from the human kappa opioid receptor (human); test: cell-based or functional assay
[2] = target: OR2, RASSL derived from the human kappa opioid receptor (human); test: cell-based or functional assay
[3] = target: OR1, RASSL derived from the human kappa opioid receptor (human); test: binding to the receptor expressed in COS-7 and CHO-KI cells; Ki, method only 'as previously described'
[4] = target: OR2, RASSL derived from the human kappa opioid receptor (human); test: as above

In the case of “Dynorphin A (from UniProt P01213 207-223) (peptide)”, the EC50, signaling (activation of G protein-mediated signal) [1] is reported as 61 nM, the EC50, signaling (activation of G protein-mediated signal) [2] is reported as 1080 nM and the Ki [3] is reported as 14.6 nM. The Ki [4] was 125 nM.

— patent publication US20030167476A1
